± gives the standard deviation of the averaged measurements.
Experiments:
hTERT-HMEC = experiment: percentage of EdU-negative (G0-arrested) nuclei per well, 72 h; higher = more G0 arrest; details: reference: sequence is the full UniProt precursor, the tested protein was the secreted form or ectodomain
MCF7 = experiment: as above; details: reference: sequence is the full UniProt precursor, the tested protein was the secreted form or ectodomain
[1] = protein concentration 0.0308571 µM
[2] = protein concentration 0.308571 µM
[3] = protein concentration 0.0225 µM
[4] = protein concentration 0.02102 µM
[5] = protein concentration 0.2102 µM
[6] = protein concentration 0.0229925 µM
[7] = protein concentration 0.229925 µM
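Further: secreted proteins added to cultured cells, EdU pulse at the end, nuclei found by Hoechst imaging, EdU status from nuclear versus surrounding ring intensity ratio, PBS as neutral control.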

Sequence: MARLGNCSLTWAALIILLLPGSLEECGHISVSAPIVHLGDPITASCIIKQNCSHLDPEPQILWRLGAELQPGGRQQRLSDGTQESIITLPHLNHTQAFLSCCLNWGNSLQILDQVELRAGYPPAIPHNLSCLMNLTTSSLICQWEPGPETHLPTSFTLKSFKSRGNCQTQGDSILDCVPKDGQSHCCIPRKHLLLYQNMGIWVQAENALGTSMSPQLCLDPMDVVKLEPPMLRTMDPSPEAAPPQAGCLQLCWEPWQPGLHINQKCELRHKPQRGEASWALVGPLPLEALQYELCGLLPATAYTLQIRCIRWPLPGHWSDWSPSLELRTTERAPTVRLDTWWRQRQLDPRTVQLFWKPVPLEEDSGRIQGYVVSWRPSGQAGAILPLCNTTELSCTFHLPSEAQEVALVAYNSAGTSRPTPVVFSESRGPALTRLHAMARDPHSLWVGWEPPNPWPQGYVIEWGLGPPSASNSNKTWRMEQNGRATGFLLKENIRPFQLYEIIVTPLYQDTMGPSQHVYAYSQEMAPSHAPELHLKHIGKTWAQLEWVPEPPELGKSPLTHYTIFWTNAQNQSFSAILNASSRGFVLHGLEPASLYHIHLMAASQAGATNSTVLTLMTLTPEGSELHIILGLFGLLLLLTCLCGTAWLCCSPNRKNPLWPSVPDPAHSSLGSWVPTIMEEDAFQLPGLGTPPITKLTVLEEDEKKPVPWESHNSSETCGLPTLVQTYVLQGDPRAVSTQPQSQSGTSDQVLYGQLLGSPTSPGPGHYLRCDSTQPLLAGLTPSPKSYENLWFQASPLGTLVTPAPSQEDDCVFGPLLNFPLLQGIRVHGMEALGSF
- percentage of EdU-negative (hTERT-HMEC; [1]): 5.21 ± 0.22%
- percentage of EdU-negative (hTERT-HMEC; [2]): 10.7 ± 1.1%
- percentage of EdU-negative (MCF7; [1]): 27.8 ± 0.38%
- percentage of EdU-negative (MCF7; [2]): 29.5 ± 3%

Sequence: MARMGLAGAAGRWWGLALGLTAFFLPGVHSQVVQVNDSMYGFIGTDVVLHCSFANPLPSVKITQVTWQKSTNGSKQNVAIYNPSMGVSVLAPYRERVEFLRPSFTDGTIRLSRLELEDEGVYICEFATFPTGNRESQLNLTVMAKPTNWIEGTQAVLRAKKGQDDKVLVATCTSANGKPPSVVSWETRLKGEAEYQEIRNPNGTVTVISRYRLVPSREAHQQSLACIVNYHMDRFKESLTLNVQYEPEVTIEGFDGNWYLQRMDVKLTCKADANPPATEYHWTTLNGSLPKGVEAQNRTLFFKGPINYSLAGTYICEATNPIGTRSGQVEVNITEFPYTPSPPEHGRRAGPVPTAIIGGVAGSILLVLIVVGGIVVALRRRRHTFKGDYSTKKHVYGNGYSKAGIPQHHPPMAQNLQYPDDSDDEKKAGPLGGSSYEEEEEEEEGGGGGERKVGGPHPKYDEDAKRPYFTVDEAEARQDGYGDRTLGYQYDPEQLDLAENMVSQNDGSFISKKEWYV
- percentage of EdU-negative (hTERT-HMEC; [3]): 4.56 ± 1.1%
- percentage of EdU-negative (hTERT-HMEC; protein concentration 0.225 µM): 4.77 ± 0.62%
- percentage of EdU-negative (MCF7; [3]): 25.4 ± 4.4%
- percentage of EdU-negative (MCF7; protein concentration 0.225 µM): 23.9 ± 2.4%

Sequence: MARPGQRWLGKWLVAMVVWALCRLATPLAKNLEPVSWSSLNPKFLSGKGLVIYPKIGDKLDIICPRAEAGRPYEYYKLYLVRPEQAAACSTVLDPNVLVTCNRPEQEIRFTIKFQEFSPNYMGLEFKKHHDYYITSTSNGSLEGLENREGGVCRTRTMKIIMKVGQDPNAVTPEQLTTSRPSKEADNTVKMATQAPGSRGSLGDSDGKHETVNQEEKSGPGASGGSSGDPDGFFNSKVALFAAVGAGCVIFLLIIIFLTVLLLKLRKRHRKHTQQRAAALSLSTLASPKGGSGTAGTEPSDIIIPLRTTENNYCPHYEKVSGDYGHPVYIVQEMPPQSPANIYYKV
- percentage of EdU-negative (hTERT-HMEC; [4]): 5.93 ± 0.36%
- percentage of EdU-negative (hTERT-HMEC; [5]): 5.52 ± 0.52%
- percentage of EdU-negative (MCF7; [4]): 26.6 ± 1.7%
- percentage of EdU-negative (MCF7; [5]): 27.1 ± 2.8%

Sequence: MARPLCTLLLLMATLAGALASSSKEENRIIPGGIYDADLNDEWVQRALHFAISEYNKATEDEYYRRPLQVLRAREQTFGGVNYFFDVEVGRTICTKSQPNLDTCAFHEQPELQKKQLCSFEIYEVPWEDRMSLVNSRCQEA
- percentage of EdU-negative (hTERT-HMEC; [3]): 5.17 ± 0.14%
- percentage of EdU-negative (hTERT-HMEC; protein concentration 0.225 µM): 6.38 ± 0.58%
- percentage of EdU-negative (MCF7; [3]): 25.1 ± 1.4%
- percentage of EdU-negative (MCF7; protein concentration 0.225 µM): 24.36 ± 0.2%

Sequence: MARPNKFLLWFCCFAWLCFPISLGSQASGGEAQIAASAELESGAMPWSLLQHIDERDRAGLLPALFKVLSVGRGGSPRLQPDSRALHYMKKLYKTYATKEGIPKSNRSHLYNTVRLFTPCTRHKQAPGDQVTGILPSVELLFNLDRITTVEHLLKSVLLYNINNSVSFSSAVKCVCNLMIKEPKSSSRTLGRAPYSFTFNSQFEFGKKHKWIQIDVTSLLQPLVASNKRSIHMSINFTCMKDQLEHPSAQNGLFNMTLVSPSLILYLNDTSAQAYHSWYSLHYKRRPSQGPDQERSLSAYPVGEEAAEDGRSSHHRHRRGQETVSSELKKPLGPASFNLSEYFRQFLLPQNECELHDFRLSFSQLKWDNWIVAPHRYNPRYCKGDCPRAVGHRYGSPVHTMVQNIIYEKLDSSVPRPSCVPAKYSPLSVLTIEPDGSIAYKEYEDMIATKCTCR
- percentage of EdU-negative (hTERT-HMEC; [6]): 4.1 ± 0.078%
- percentage of EdU-negative (hTERT-HMEC; [7]): 4.84 ± 1.5%
- percentage of EdU-negative (MCF7; [6]): 24.683 ± 0.017%
- percentage of EdU-negative (MCF7; [7]): 29.8 ± 2.2%
